Source: patent publication US20140087995A1 (published 2014)
Numbered stars: 1 amine (or outer) side, 2 acyl side, 3 side chain; on linkers, the order of the positions; unused ones are H or OH. Bridge positions count the residues as written; N and C are the ends. Side chains are listed from the residue outwards. Ends that are not written are not given here. * marks the point of attachment. C20 diacid = O=C(O)CCCCCCCCCCCCCCCCCCC(=O)*; γGlu = O=C(O)[C@H](CCC(=O)[*:2])N[*:1]

T1: human amylin receptor (amylin 3(a) receptor: human calcitonin receptor with RAMP-3) (human, UniProt P30988 25-474; O60896 24-148)
T1 construct: whole, on cells; also called hAmylin-R; hAmylinR
T1 sequence (looked up) 1: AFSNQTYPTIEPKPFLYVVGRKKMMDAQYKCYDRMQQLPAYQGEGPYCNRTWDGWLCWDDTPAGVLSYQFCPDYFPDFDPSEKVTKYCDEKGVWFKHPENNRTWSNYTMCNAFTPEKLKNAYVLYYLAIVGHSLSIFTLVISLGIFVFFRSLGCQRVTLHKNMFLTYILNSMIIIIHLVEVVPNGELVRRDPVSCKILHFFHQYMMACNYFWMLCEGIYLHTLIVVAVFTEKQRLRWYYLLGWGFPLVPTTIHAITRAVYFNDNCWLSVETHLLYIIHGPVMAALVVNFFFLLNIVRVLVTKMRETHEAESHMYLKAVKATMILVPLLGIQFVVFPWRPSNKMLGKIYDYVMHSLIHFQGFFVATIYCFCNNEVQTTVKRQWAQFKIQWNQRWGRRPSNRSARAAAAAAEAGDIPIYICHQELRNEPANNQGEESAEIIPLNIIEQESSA
T1 sequence (looked up) 2: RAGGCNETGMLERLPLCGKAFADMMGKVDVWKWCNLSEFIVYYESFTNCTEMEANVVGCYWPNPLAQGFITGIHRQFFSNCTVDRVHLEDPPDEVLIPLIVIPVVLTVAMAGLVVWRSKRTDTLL


Target: T1, human amylin receptor (amylin 3(a) …)
Assay: SPA displacement of 125I-rat amylin, hAmylin 3(a) receptor membranes
Method in brief: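 SPA beads + BHK amylin 3(a)/CRE-luc membranes, 35 ng/μL final; buffer 50 mM Hepes pH 7.4, 1 mM CaCl2, 5 mM MgCl₂, 0.1% OA, 0.02% Tween20. 120 min, 25° C, shaken; scintillation count. IC₅₀ by one-site binding competition fit, taken as receptor affinity.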

IC50 [nM] | Binder
0.695 | K([γGlu-C20 diacid])CNTATCATQRLANFLRHSSPNFGAIPSSTNVGSHTY-NH2 (disulfide 2-7; N-terminus assumed; SMILES CC[C@H](C)[C@H](NC(=O)[C@H](C)NC(=O)CNC(=O)[C@H](Cc1ccccc1)NC(=O)[C@H](CC(N)=O)NC(=O)[C@@H]1CCCN1C(=O)[C@H](CO)NC(=O)[C@H](CO)NC(=O)[C@H](Cc1c[nH]cn1)NC(=O)[C@H](CCCNC(=N)N)NC(=O)[C@H](CC(C)C)NC(=O)[C@H](Cc1ccccc1)NC(=O)[C@H](CC(N)=O)NC(=O)[C@H](C)NC(=O)[C@H](CC(C)C)NC(=O)[C@H](CCCNC(=N)N)NC(=O)[C@H](CCC(N)=O)NC(=O)[C@@H](NC(=O)[C@H](C)NC(=O)[C@@H]1CSSC[C@H](NC(=O)[C@@H](N)CCCCNC(=O)CC[C@H](NC(=O)CCCCCCCCCCCCCCCCCCC(=O)O)C(=O)O)C(=O)N[C@@H](CC(N)=O)C(=O)N[C@@H]([C@@H](C)O)C(=O)N[C@@H](C)C(=O)N[C@@H]([C@@H](C)O)C(=O)N1)[C@@H](C)O)C(=O)N1CCC[C@H]1C(=O)N[C@@H](CO)C(=O)N[C@@H](CO)C(=O)N[C@H](C(=O)N[C@@H](CC(N)=O)C(=O)N[C@H](C(=O)NCC(=O)N[C@@H](CO)C(=O)N[C@@H](Cc1c[nH]cn1)C(=O)N[C@H](C(=O)N[C@@H](Cc1ccc(O)cc1)C(N)=O)[C@@H](C)O)C(C)C)[C@@H](C)O, also called 60; compound 60) [N^ε1-[(4S)-4-carboxy-4-(19-carboxynonadecanoylamino)butanoyl]-[Arg17,Pro21,Pro27,His35]-h-amylin]
0.97 | K([γGlu-C20 diacid])CNTATCATQRLANFLRHSSPNFGAIPSSTNVGSKTY-NH2 (disulfide 2-7; N-terminus assumed; SMILES CC[C@H](C)[C@H](NC(=O)[C@H](C)NC(=O)CNC(=O)[C@H](Cc1ccccc1)NC(=O)[C@H](CC(N)=O)NC(=O)[C@@H]1CCCN1C(=O)[C@H](CO)NC(=O)[C@H](CO)NC(=O)[C@H](Cc1c[nH]cn1)NC(=O)[C@H](CCCNC(=N)N)NC(=O)[C@H](CC(C)C)NC(=O)[C@H](Cc1ccccc1)NC(=O)[C@H](CC(N)=O)NC(=O)[C@H](C)NC(=O)[C@H](CC(C)C)NC(=O)[C@H](CCCNC(=N)N)NC(=O)[C@H](CCC(N)=O)NC(=O)[C@@H](NC(=O)[C@H](C)NC(=O)[C@@H]1CSSC[C@H](NC(=O)[C@@H](N)CCCCNC(=O)CC[C@H](NC(=O)CCCCCCCCCCCCCCCCCCC(=O)O)C(=O)O)C(=O)N[C@@H](CC(N)=O)C(=O)N[C@@H]([C@@H](C)O)C(=O)N[C@@H](C)C(=O)N[C@@H]([C@@H](C)O)C(=O)N1)[C@@H](C)O)C(=O)N1CCC[C@H]1C(=O)N[C@@H](CO)C(=O)N[C@@H](CO)C(=O)N[C@H](C(=O)N[C@@H](CC(N)=O)C(=O)N[C@H](C(=O)NCC(=O)N[C@@H](CO)C(=O)N[C@@H](CCCCN)C(=O)N[C@H](C(=O)N[C@@H](Cc1ccc(O)cc1)C(N)=O)[C@@H](C)O)C(C)C)[C@@H](C)O, also called 35; compound 35) [N^ε1-[(4S)-4-carboxy-4-(19-carboxynonadecanoylamino)butanoyl]-[Arg17,Pro21,Pro27,Lys35]-h-amylin]
